Measurements as given in a protein production outcome set (Wang et al. 2014).

assay: label from the status in PepcDB records

| Sequence | protein production |
| --- | --- |
| MTTPFVLAVPSKGRLQENAEAFFARAGLTLSKLGGARDYRGTIAGLDNVEIAYLSASEIAAQLARGTVHLGITGEDLIRESIADADKKVALIEGLGFGGANVVVAVPQAWIDVRTMADLDDVTTGFRAQHNRRMRVATKYINLTRNFFAAHGVVDYRIVESAGATEGAPAVGTAEMIVDITSSGATLVANGLKVLDDGVILRSQANLVASRAADWSADALETARVILDRIAARARANKYKEVRTRFAGCDASLLTEAHNRFGVVSPFGGPTSSGMITLHCPPAQLYALGSFLRDHGADTVSIASLDYVLDRENPLFAKLESFLRQ | failed |
| MTTPLSPEATPPHGDLASGNVTRRILGIVVFNFIAYLSVGLPIAVVPGFVHGDLGYSAVLAGLAVSIQYLATLLSRPWAGSLCDMKGPKRSVLTGLLLCAGSGLLMLVAAQFAGNDWLALGWLLSSRLMLGAGESLVTTGTIAWGIGSVGARHTAKVISWNGVTTYGALAVGAPVGVLLAGHGGLTAIGIVTSVIAGASWLLARRQAAVPILKGERLPFRSVFRAMSPFGLCLGLGSVGFGAITAFITLYYAGHGWDHAALALTALGTCFVLTRLIMADSITRFGGYPVALVSFAVEAAGLAMLWLAQAPWQALAGAAVVGFGFSLVFPSLGIEAVKRVPATNRGSALGAYALFFDFSLGLTGPVAGLITKHAGYPAVYLFAALAAVLALVLSQVLAARYRDRLAPAT | failed |
| MTTPNFELYGYFRSSCSGRLRIAFHLKSIPYTRHPVNLLKGEQHSDTYKSLNPTNTVPLLVVSNINNTVSPSSASFSIGQSLAALEYLEEALPTNARPLLPPISNPVARAHVRTICNIIACDVQPVTNLKIQKKVKALDGDPTVWSRDLATQGFGAVEKLLELSAGRFCVGDEITLADVCLVPAVWAAERVGMDLARFPITKRVFEEMLKEEAVQKAHWQKQEDTPEDLRA | not failed |
| MTTRILTGITPTGTPHLGNYAGAIRPAILASRRSDVDSFYFLADYHALIKCDDPARIQRSRLEIAATWLAGGLDVERATFYRQSDIPEIPELTWLLTCVSAKGLLNRAHAYKAAVDRNVEAGEDPDAGVTMGLYSYPVLMAADILMFNAHKIPVGRDQVQHVEMARDIGQRFNHLFGNGREFFVLPEAVIEENVATLPGLDGRKMSKSYDNTIPLFSPSRQLKDAIARIVTDSRAPGEPKDPDSSHLFLLYSAFASAEQVAAFRQELLEGLAWGEAKQRLFQLLDNELGEARERYQALIAKPDDIEDILLAGAAKARRIATPFIAELREAVGLRSLREPLKSAESGKKKAAKAARLVSFRDDDGSFRFRLLDAAGEQLLLSRAFADGKAAGAVSKRLLAGETADLRAEGNAFGLWLDGEAVAQSPAFADAAARDAAIERTREALAPQ | failed |
| MTTTSSINERQVLKHLQAQLPDCLLLDRFHLKRRLQQVGAMLEQGKPVDKLMTELATKVQTSLQRRQLRQEQLPKPEYPAELPVSARKDEIAQAIAKHQVVIVSGETGSGKTTQLPKICLELGRGVAGLIGHTQPRRIAARSVASRIAQELKSPLGEAVGYKVRFNDRLSETTYIKLMTDGILLAETQGDRFLNAYDTIIIDEAHERSLNIDFLLGYLKQLLPRRPDLKVIVTSATIDAERFSRHFNGAPVIEVSGRTYPVEIRYRPLGSRRMVVAPPAPVAAPVPVVAQKEEAPQEDIIDIGIKRKAGNIDPSIRKWLEDDNDVEVLGQDIMGIQRKPRAEAKWLEEDDAEEAMEEAILDSVEQLSRLGGGDILVFLPGEREIRETADYLNKHLRHVEILPLFARLSIEDQQKVFRSSGGRRVVLATNVAETSLTVPGIKYVIDTGLARVNRYSARAKVEQLQVEKISQAAARQRAGRCGRVSNGICIRLYDEADFNHRPEFTDPEILRSSLAAVILRMAALKLGNVQDFPFIEAPSSRYIADGYQLLQELGAVDAEQNITDTGRQLARLPLDPRVSRMILEGKKQGCVREILIIASALAIQDPRERPMDKREAADQAHAKFNVEHSDFLGFIKLWEWYEDALKTKKSNKDLLNKCHSNFLSFLRLKEWRELYQQLREIAEELELKLNEQPASYEQVHRALLAGLLGNIGFKDGEADNYLGARGIRFHIAPGSTLKKARPKWVMAAELMETTKLYARCVARIEPDWIEPLARGLTQSHYSDPRWDRKAAQVVAWERVSLYGLTVVPRRRVHYGPINPQESREIFIREALANMEFDTRAPFFAANRKLIAEIEELEHKARRQDVLVDEHTLFAFYDAIIPAGIVNGAGFEKWRQEAERETPRLLYLTRDHLMRHGAAGVTEVQFPESLELDGVKLPLKYRFEPGHPLDGVTATVPLALLNQLNPVEAEWLVPGMIREKVTALIKALPKTLRRVCVPVPDFVTGFLETATRKDGALLPALASYIQQRTGLKLSASEWQADALDAHLYMNFRVVDEKNRELGSGRDWHALKAQLGQAAQLTFRSNSPGIEKAGLKQWDFGDLPPTLSFSRDGRQLTGYPALEDNGDSVAIKLFDTELAARQSHRAGVRRLMRFELKEQMKQLEKGLPGFNQYALQLRSIMSPEELREDMLVAISDRAFIGEDELPRNSQDFMALKARARTRLPAVVEGAGRLATAIATEYTQLTQKLNAAPASLSRVKKELEGQLARLLPKRFFSATPWDTLQHLPRYIKAMRLRLEKYPGAIERDTRSGQAVQQIWERWESHVQGLRKANQEVPPAVLDYRWLIEELRVSLFAQELKTPFPVSVKRLDKAWEDMVRA | failed |
| MTTVIVANDLVGFGKVALTSSLLPIMSACQTEVLPLPTVLLSSHTGEFDNIYVRYLTVDMQGFCGQWKRLDFRVDGLVGGYFKSEEELGLVSQCLTKKRFLFLLDPIMGDNGRLYQGFDRDYVEAMKDFCQQADVIIPNLTEAALLTGSPYLEEGSYDMTTIENLLRNLSRLGPRKVILTGISFETEKIGLAYFDKETNQVIYRMRKRYQSHFYGSGDLLTAILSAGYFHNLDFLKVCDLALDFLNKVLLFTLSSGRPLKYGLCYEPLYRLFILEHHHHHH | not failed |
| MTVDAATSAEVSQRVLAYLVEQLGVDVSFLRHNDRDRRATRLVAEWPPRLNIPDPDPLRLIYFADADPVFALCEHAKEPLVFRPEPATEDYQRLIEEARGVPVTSAAAVPLVSGEITTGLLGFIKFGDRKWHEAELNALMTIATLFAQVQARVAAEARLRYLADHDDLEHHHHHH | not failed |
| MTVDSNTSSGRGNDPEQIDLIELLLQLWRGKMTIIVAVIIAILLAVGYLMIAKEKWTSTAIITQPDAAQVATYTNALNVLYGGNAPKISEVQANFISRFSSAFSALSEVLDNQKEREKLTIEQSVKGQALPLSVSYVSTTAEGAQRRLAEYIQQVDEEVAKELEVDLKDNITLQTKTLQESLETQEVVAQEQKDLRIKQIEEALRYADEAKITQPQIQQTQDVTQDTMFLLGSDALKSMIQNEATRPLVFSPAYYQTKQTLLDIKNLKVTADTVHVYRYVMKPTLPVRRDSPKTAITLVLAVLLGGMIGAGIVLGRNALRSYKPKAL | not failed |
| MTVGASQQTSTIALHNDTGMLMSNLNIFKQPNAFYLIFSIEFWERFGFYGMQAILTVYMVKIMGMDESASFVLFGAFSALVYGFVAIGGWIGDKVIGTKRAITLGAIVMMVGYVLLGLSTADHPLVGPTLIYIAMGFITVGNGLFKANPSSLLAKIYPENDPRLDGAFTMYYMAINLGSFFSMIITPLVAIKMGYGMAFGVSAVGLAITVVNFLFCLRMLKGTGSPADLMPVNKMYLVLVAVGSIIASLVCSYLLQNLTLAHGILVVAGLFILGCYFKEAFSMSGIERAKMLVAFILMLQGVVFFVLYFQMPTSLNFFAINNVEHHIFGFDVAPEQFQALNPFWIMIASPILAATYGKLGDKLAMPFKFAFGMALCALSFLVLSWGTLFANEQGIISSNWLIASYAFQSIGELLVSGLGLAMVAQLVPQRMMGFAMGMWFLTSASAAVIAGWVASLTSTPANVSGATESLHIYGEVFAQIGYVTAGIAIVTFMIAPKLTRICRGESEPLELVTQ | failed |
| MTVIERFKSNLKGKQNLINFGFILIGLFGCYLLIAWASYSPLDNAWSTASSVTHDTVLNKTGKLGAWLIDLLYAFLGNVAFVVPFVLFSFAIYALIFRIAEQWKWRNLLLQIGSFILLLIGLSGIASVLLPNSAYYLAGGFVGGMLQSLLNGIIGQVGLLLLSTVLMSIGFYFCSGQLLFSLGIQFYQWLFIKKPQSNTILEAANPHLNAQNNETTKSIVANPSENAHVDQLVTHENATEQLTDVSAFTRPTIHGLKSSSTLNTDKTKYNQVNAQPLTDPMMFKIEKKVILPKINMQHPENELTNLSMEQTNSIDNLEIRLPKVHLNTAVTNPEIKTVEHHAQNRPLEMPTQIQPVFDQPITPTISLNVEDQPLDIESNEAQLAEEFAAAEQMRLANMEQRAKAEGLEETFNQIITSPTLTVSINESSEQPTEKDLNPTHHDNGANYPKGYGKTLLHPLLQRNNVVEKPTTPLPTLELLAKNPVQTQQITEQEIFDTSHRLENALANYNVKATVEDVLVGPVVTRYEIKPAAGIKANKVTALANDLARELMFKAIRITEVVPGKPYMGIETPNTHRQTVWLRDVLDSEAFRHTQATLPMALGKDISGQPIVVDMAKMPHLLVAGQTGGGKSVGINTMILSLLFKLTPEQVRFIMIDPKVVELSVYNDIPHLLTPVVTDMKKAANALRWAVGEMERRYLLISHLQVRNIEGYNDKIDQASAMNFPIPDPTWRPADSIGQLPPPLTKLSYIVLIVDEFADLIMSAGKEVEEYIMRIAQKARAVGIHLILATQRPSTDVITGVIKANIPSRIAFTVASQIDSRTILDAGGAEALLGRGDMLYSASGSPEIMRIHGAFMSDEEVQRIADNWRARGKPQYLDSVVASHEDENDSRTNTITELDPLFDEIVAYVIESGVTSISGIQRRFSLGFNRAGRIIDQMEAQAIISEPGKGGKREVLAR | failed |
| MTVITLMLVLFEVVFSVSIYRYYYNGIVQYIESHAKTSTRFFSEYNSLYFIRLQEYSGDIISSFQLEGTELQLIDRHGSVIQSSSGEKVEGKVNIPQSLLEGEMYNQVTTKGNKKQLEVLSPLIHQGQTIGVLKYTTVLTNVNKKIIEIITFTISVGIVISGVVFLISRRLANSFVEPIESIIQASSQIAEGTLKQKIKEDYPGELGDLAHSLNYMAYKIDKAEQMKNEFIASISHEIRTPLTGIKGWSETLKTVDHLTEEEIKQGMGIISGETDRLIHLVEELLDFSRLQSNHFNLYKQKVQLYDILEETIWQLTPKSEEKEIQFITTIDRMELMGDRNRLKQVFLNIVQNAIKYSHKKSTIHIEATKIEGQAVIKVRDEGIGIAKEHLPYIEQSFYQINNHAAGAGIGLAIVKKMVELHSGVLSVTSKEGIGTTILIKLPL | failed |
| MTVLKGDNLEILKTIESSSIDLIYMDPPFFTQKTQKLSNNKNIMYSFEDTWTSIEDYKEFLSVRLEECKRVLKNSGSIFVHCDKIANHHIRLILDNIFGVDMFQSEIIWNYKRWSNSKKGLLNNHQNIYFYSKSKDFKFNTIFTEYSSTTNIDQILVERKRDGNSKTIYKVDNNGNYILAKEKNGVPLSDVWNIPFLNPKAKERVGYPTQKPILLLEQIIKIATDKNDIVLDPFCGSGTTLVASKILNRNYMGIDLSEEAINITQQRLENVIKTSSNLLNKGIE | failed |
| MTVLSPSLPHAAGIDAALVENPWLGLRRSGRYFQNAETEALFARALGYARAGVCVHLAGPAGLGKTTLALRIAQALGRPVAFMTGNEWLGSRDFIGGEIGQTVTSVVDRYIQSVRRTEQSARIDWKESILGQAMRCGQTFIYDEFTRASPEANAALLSVLEEGVLVSTDGASRHQYIEAHPDFRVLLTSNPHEYQGVKAAPDALIDRMVTLRLEEPSAPTLAGIVALRSGLDPATARRIVDLILSVQRSGEMQAPPSMRTAILVARLAAPLRLAGRLSDAALAEIAADVLRGRGLEADAAAFEAKLAAPTPGETARLEHHHHHH | failed |
| MTVNVYDLANELERGIRALPEYQALVQAKAKIDEDEEAKKLWTEFTEFQMKIQGLIQTGQAPTPEVQTEMQSFNQKIEANPLLKEYATAQQALGVYVNDIERIIFSPLQDIAK | not failed |
| MTVPEEAQTLIGKHYRAPDHFLVGREKIREFAVAVKDDHPTHYSEPDAAAAGYPALVAPLTFLAIAGRRVQLEIFTKFNIPINIARVFHRDQKFRFHRPILANDKLYFDTYLDSVIESHGTVLAEIRSEVTDAEGKPVVTSVVTMLGLEHHHHHH | failed |
